The record followed here is paper PMC8263776, “Calmodulin-dependent KCNE4 dimerization controls membrane targeting” (Scientific Reports, 2021).

B1: KCNE4-CFP [mouse] / KCNE4-YFP [mouse] (parent)
chain 1: MLRMEPLNSTYPSAAASSSPLESHVPSNSSGNGNEYFYILVVMSFYGVFLIGIMLGYMKSKRREKKSSLLLLYKDEERLWGEAMKPLPMMSGLRSGQVPMMLNMLQESVAPALSCTLCSMEGDSVSSESSSPDVHLPIQEEGADDELEETSETPLNDSSEGSSENIHQNS
chain 2: B1 chain 1

The test covers variants of B1. Description: FRET (CFP/YFP) in cells. To be noted: with KCNE4-YFP [mouse]; HEK-293 cells; n > 25 cells; parent: 12; read off a plot.
Turning to chain 1 MLRMEPLNSTYPSAAASSSPLESHVPSNSSGNGNEYFYILVVMSFYGVFLIGIMLGYMKSKRREKKSSAAAAYKDEERLWGEAMKPLPMMSGLRSGQVPMMLNMLQESVAPALSCTLCSMEGDSVSSESSSPDVHLPIQEEGADDELEETSETPLNDSSEGSSENIHQNS [chain 1 L69A L70A L71A L72A], the response was 7.2%.
